According to patent publication US20220324969A1 (MYTHIC THERAPEUTICS, published 2022):
Numbering of substitutions follows the chain as printed. Names may count otherwise.

B1: MYT0482 (antibody, V domains shown)
VH: EVQLVQSGAEVKKPGSSVKVSCKASHYTITDSNIHWVRQAPGQSLEWIGYIYPYNGGTDYNQKFKNRATLTVDNPTNTAYMELSSLRSEDTDFYYCVNGNPWLAYWGQGTLVTVSS
VL: DIQLTQSPSTLSASVGDRVTITCRASESLDNYGIRFLTWFQQKPGKAPKLLMYAASNQGSGVPSRFSGSGSGTEFTLTISSLQPDDFATYYCQQTKEVPWSFGQGTKVEVK
notes: IgG; gemtuzumab VH variant #1 (G26H)
B2: MYT0483 (antibody, V domains shown)
VH: B1 VH with H26G, Y27H
VL: B1 VL
notes: IgG; gemtuzumab VH variant #2 (Y27H)
B3: MYT0484 (antibody, V domains shown)
VH: B1 VH with H26G, T28H
VL: B1 VL
notes: IgG; gemtuzumab VH variant #3 (T28H)
B4: MYT0485 (antibody, V domains shown)
VH: B1 VH with H26G, I29H
VL: B1 VL
notes: IgG; gemtuzumab VH variant #4 (I29H)
B5: MYT0486 (antibody, V domains shown)
VH: B1 VH with H26G, T30H
VL: B1 VL
notes: IgG; gemtuzumab VH variant #5 (T30H)
B6: MYT0487 (antibody, V domains shown)
VH: B1 VH with H26G, D31H
VL: B1 VL
notes: IgG; gemtuzumab VH variant #6 (D31H)
B7: MYT0488 (antibody, V domains shown)
VH: B1 VH with H26G, S32H
VL: B1 VL
notes: IgG; gemtuzumab VH variant #7 (S32H)
B8: MYT0489 (antibody, V domains shown)
VH: B1 VH with H26G, N33H
VL: B1 VL
notes: IgG; gemtuzumab VH variant #8 (N33H)
B9: MYT0490 (antibody, V domains shown)
VH: B1 VH with H26G, I34H
VL: B1 VL
notes: IgG; gemtuzumab VH variant #9 (I34H)
B10: MYT0492 (antibody, V domains shown)
VH: B1 VH with H26G, Y50H
VL: B1 VL
notes: IgG; gemtuzumab VH variant #11 (Y50H)
B11: MYT0493 (antibody, V domains shown)
VH: B1 VH with H26G, I51H
VL: B1 VL
notes: IgG; gemtuzumab VH variant #12 (I51H)
B12: MYT0494 (antibody, V domains shown)
VH: B1 VH with H26G, Y52H
VL: B1 VL
notes: IgG; gemtuzumab VH variant #13 (Y52H)
B13: MYT0496 (antibody, V domains shown)
VH: B1 VH with H26G, Y54H
VL: B1 VL
notes: IgG; gemtuzumab VH variant #15 (Y54H)
B14: MYT0497 (antibody, V domains shown)
VH: B1 VH with H26G, N55H
VL: B1 VL
notes: IgG; gemtuzumab VH variant #16 (N55H)
B15: MYT0498 (antibody, V domains shown)
VH: B1 VH with H26G, G56H
VL: B1 VL
notes: IgG; gemtuzumab VH variant #17 (G56H)
B16: MYT0499 (antibody, V domains shown)
VH: B1 VH with H26G, G57H
VL: B1 VL
notes: IgG; gemtuzumab VH variant #18 (G57H)
B17: MYT0500 (antibody, V domains shown)
VH: B1 VH with H26G, T58H
VL: B1 VL
notes: IgG; gemtuzumab VH variant #19 (T58H)
B18: MYT0501 (antibody, V domains shown)
VH: B1 VH with H26G, D59H
VL: B1 VL
notes: IgG; gemtuzumab VH variant #20 (D59H)
B19: MYT0502 (antibody, V domains shown)
VH: B1 VH with H26G, Y60H
VL: B1 VL
notes: IgG; gemtuzumab VH variant #21 (Y60H)
B20: MYT0503 (antibody, V domains shown)
VH: B1 VH with H26G, N61H
VL: B1 VL
notes: IgG; gemtuzumab VH variant #22 (N61H)
B21: MYT0504 (antibody, V domains shown)
VH: B1 VH with H26G, Q62H
VL: B1 VL
notes: IgG; gemtuzumab VH variant #23 (Q62H)
B22: MYT0505 (antibody, V domains shown)
VH: B1 VH with H26G, K63H
VL: B1 VL
notes: IgG; gemtuzumab VH variant #24 (K63H)
B23: MYT0506 (antibody, V domains shown)
VH: B1 VH with H26G, F64H
VL: B1 VL
notes: IgG; gemtuzumab VH variant #25 (F64H)
B24: MYT0507 (antibody, V domains shown)
VH: B1 VH with H26G, K65H
VL: B1 VL
notes: IgG; gemtuzumab VH variant #26 (K65H)
B25: MYT0508 (antibody, V domains shown)
VH: B1 VH with H26G, N66H
VL: B1 VL
notes: IgG; gemtuzumab VH variant #27 (N66H)
B26: MYT0510 (antibody, V domains shown)
VH: B1 VH with H26G, N98H
VL: B1 VL
notes: IgG; gemtuzumab VH variant #29 (N98H)
B27: MYT0512 (antibody, V domains shown)
VH: B1 VH with H26G, N100H
VL: B1 VL
notes: IgG; gemtuzumab VH variant #31 (N100H)
B28: MYT0514 (antibody, V domains shown)
VH: B1 VH with H26G, W102H
VL: B1 VL
notes: IgG; gemtuzumab VH variant #33 (W102H)
B29: MYT2669 (antibody, V domains shown)
VH: QVQLVQSGAEVKKPGASVKVSCKASGYTFTNYDINWVRQAPGQGLEWIGWIYPGDGSTKYNEKFKAKATLTADTSTSTAYMELRSLRSDDTAVYYCASGYEDAMDYWGQGTTVTVSS
VL: DIQMTQSPSSLSASVGDRVTINCKASQDINSYLSWFQQKPGKAPKTLIYRANRLHDGVPSRFSGSGSGQDYTLTISSLQPEDFATYYCLQYDEFPLTFGGGTKVEIK
notes: IgG; vadastuximab VL variant #17 (V55H)
B30: MYT2670 (antibody, V domains shown)
VH: B29 VH
VL: B29 VL with H55V, D56H
notes: IgG; vadastuximab VL variant #18 (D56H)
B31: MYT2671 (antibody, V domains shown)
VH: B29 VH
VL: B29 VL with H55V, L89H
notes: IgG; vadastuximab VL variant #19 (L89H)
B32: MYT2672 (antibody, V domains shown)
VH: B29 VH
VL: B29 VL with H55V, Q90H
notes: IgG; vadastuximab VL variant #20 (Q90H)
B33: MYT2674 (antibody, V domains shown)
VH: B29 VH
VL: B29 VL with H55V, D92H
notes: IgG; vadastuximab VL variant #22 (D92H)
B34: MYT2675 (antibody, V domains shown)
VH: B29 VH
VL: B29 VL with H55V, E93H
notes: IgG; vadastuximab VL variant #23 (E93H)
B35: MYT2676 (antibody, V domains shown)
VH: B29 VH
VL: B29 VL with H55V, F94H
notes: IgG; vadastuximab VL variant #24 (F94H)
B36: MYT2677 (antibody, V domains shown)
VH: B29 VH
VL: B29 VL with H55V, P95H
notes: IgG; vadastuximab VL variant #25 (P95H)
B37: MYT2679 (antibody, V domains shown)
VH: B29 VH
VL: B29 VL with H55V, T97H
notes: IgG; vadastuximab VL variant #27 (T97H)

target: T1, CD33 (Sino Biological, Cat #12238-H08H) (UniProt P20138 18-259); assay: BLI, IgG captured on anti-human Fc sensor, 50 nM CD33, pH 7.4 vs pH 5.0
T1 sequence (P20138 18-259 limits assumed): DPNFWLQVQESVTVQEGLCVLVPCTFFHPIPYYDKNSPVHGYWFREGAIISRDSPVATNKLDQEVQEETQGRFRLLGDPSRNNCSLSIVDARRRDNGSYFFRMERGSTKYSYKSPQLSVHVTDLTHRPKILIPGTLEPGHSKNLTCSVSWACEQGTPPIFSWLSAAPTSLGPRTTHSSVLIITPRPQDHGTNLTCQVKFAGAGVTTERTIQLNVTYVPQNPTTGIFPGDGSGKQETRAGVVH
Excerpt: Multiple CD33-binding monoclonal antibodies have been described in the literature and can be used as a template for engineering pH-dependent binding (Hamann P R et al (2002) “Gemtuzumab ozogamicin, a potent and selective anti-CD33 antibody-calicheamicin conjugate for treatment of acute myeloid leukemia.” Bioconjug Chem 13(1):47-58). Gemtuzumab (Heavy chain SEQ ID NO: 1, Light chain SEQ ID NO: 2) was selected as a CD33-binding monoclonal antibody for pH engineering via histidine scanning. Briefly, CDRs in the heavy chain were identified using the methods described by Kabat et al (Kabat et al. (1992) Sequences of Proteins of Immunological Interest, DIANE publishing) and IMGT (Lefranc M P (1999) “The IMGT unique numbering for Immunoglobulins, T cell receptors and Ig-like domains” The Immunologist 7, 132-136), and for each CDR, residues falling under either or both Kabat and IMGT CDR definitions were called as CDR residues. To generate pH-dependent sequence variants, individual amino acid residues within the heavy chain CDRs were systematically substituted with a histidine, one at a time (MYT0482-MYT0517). In cases where the starting CDR residue was a histidine, it was mutated to an alanine. Antibody variants with only one histidine or alanine mutation in a heavy chain CDR were generated by co-transfection of Expi293 cells with a) one heavy chain sequence variant, and b) the corresponding starting ABPC light chain using methods known to the art. After allowing for four days of protein expression, cell culture supernatants were collected, quantified by SDS-PAGE analysis, (FIG. 1), and the pH dependence of the variant was evaluated using biolayer interferometry (BLI) on an Octet RED 384 instrument. Briefly, cell culture supernatants were normalized to an antibody expression level of 25 μg/mL, and captured on an anti-human Fc sensor (Forte Bio). A baseline was established using 1×PBST (50 mM Potassium Phosphate Buffer+150 mM NaCl+0.05% Tween 20) pH 7.4, and the sensor was associated with 50 nM of CD33 (Sino Biological, Cat #12238) in 1×PBST pH 7.4 for 120 sec to generate an association curve. In the dissociation phase, the antibody-antigen complex on the sensor was exposed to 1×PBST pH 7.4 for 300-600 sec. Baseline, association, and dissociation were repeated using 1×MES (100 mM MES Buffer+150 mM NaCl+0.05% Tween 20) pH 5.0 throughout in a separate condition.

Binding result, binds:
B1
B2
B3
B4
B5
B6
B7
B8
B9
B10
B11
B12
B13
B14
B15
B16
B17
B18
B19
B20
B21
B22
B23
B24
B25
B26
B27
B28

target: T1, CD33 (Sino Biological, Cat #12238-H08H); assay: BLI, IgG captured on anti-human Fc sensor, 50 nM CD33, pH 7.4 vs pH 5.4

Binding result, binds:
B29
B30
B31
B32
B33
B34
B35
B36
B37
